What all share (test): ELISA on coated protein, anti-human Fc HRP
In general terms: An ELISA detects its analyte on a solid surface through an enzyme-linked reagent.

Test [1] has as its target ICOS (UniProt Q9Y6W8).
Test [2] addresses CTLA-4 (UniProt P16410).
For test [3], the target named is CD28 (UniProt P10747).
Test [4] addresses cynomolgus monkey PD-1 protein (cynomolgus monkey) (UniProt B0LAJ3).
Test [5] deals with murine PD-1 protein (murine) (UniProt Q02242).

“And” between values parts separate entries of the source, which are not always exact repeats. Equal values may be shown once.

murine PD-1 protein (murine), sequence (Q02242 25-167 limits assumed): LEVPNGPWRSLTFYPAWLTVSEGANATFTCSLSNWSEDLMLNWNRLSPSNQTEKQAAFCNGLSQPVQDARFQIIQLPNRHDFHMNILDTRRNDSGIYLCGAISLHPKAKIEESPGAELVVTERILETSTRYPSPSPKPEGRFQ
cynomolgus monkey PD-1 protein (cynomolgus monkey), sequence (B0LAJ3 entry or part of it limits assumed, form in doubt): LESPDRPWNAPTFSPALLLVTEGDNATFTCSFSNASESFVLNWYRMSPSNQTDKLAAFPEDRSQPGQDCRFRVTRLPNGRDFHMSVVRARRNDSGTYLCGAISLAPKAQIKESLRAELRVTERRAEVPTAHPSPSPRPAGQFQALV
ICOS, sequence (Q9Y6W8 21-140 limits assumed): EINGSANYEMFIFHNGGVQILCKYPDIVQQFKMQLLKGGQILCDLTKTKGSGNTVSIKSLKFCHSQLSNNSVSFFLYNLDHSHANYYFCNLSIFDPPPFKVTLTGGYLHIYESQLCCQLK
CTLA-4, sequence (P16410 36-161 limits assumed): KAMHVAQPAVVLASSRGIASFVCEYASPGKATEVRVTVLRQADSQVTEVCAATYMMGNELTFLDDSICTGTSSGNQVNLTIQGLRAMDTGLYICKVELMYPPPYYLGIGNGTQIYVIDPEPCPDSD

As for Keytruda (antibody), the ELISA (OD) in test [1] is 0.125 OD and 0.107 OD and 0.131 OD; in test [2] it was 0.09 OD and 0.086 OD and 0.089 OD; in test [3], 0.066 OD and 0.054 OD and 0.053 OD; in test [4] it was 2.22 OD and 2.32 OD; in test [5] it was 0.079 OD and 0.088 OD and 0.09 OD.

As for Opdivo (antibody), the ELISA (OD) in test [1] was 0.023 OD and 0.021 OD and 0.022 OD; in test [2], 0.024 OD and 0.022 OD and 0.019 OD; in test [3], 0.02 OD and 0.021 OD and 0.023 OD; in test [4], 1.89 OD and 1.79 OD and 1.83 OD; in test [5] it was 0.024 OD and 0.023 OD.

These data come from EP4269437A1.
